Results reported in publication PMC5426754, “Ezrin interacts with S100A4 via both its N- and C-terminal domains” (PLoS ONE, 2017).
Substitutions are numbered along the chain they refer to. In names and notes the source's numbering stands.

B1: Fl-C-ERMAD^T567D (fluorescently labeled phosphomimetic C-ERMAD mutant) (domain or fragment, human)
chain: CKRITEAEKNERVQRQLLTLSSELSQARDENKRTHNDIIHNENMRQGRDKYKDLRQIRQGNTKQRIDEFEAL
modifications: fluorescent label on the N-terminal cysteine (Alexa Fluor 568 C5 maleimide by the methods for the C-ERMAD fragments)
notes: cysteine cloned before Lys516, carries the fluorescent label (as for the C-ERMAD); human ezrin C-ERMAD with Thr567Asp; limits are those printed for the parent C-ERMAD (Lys516-Leu586); source: E. coli Rosetta(DE3), purified, fluorescently labeled; not shown: GST, N-terminal, cleaved
B2: Fl-C-ERMAD (fluorescently labeled ezrin C-ERMAD, Cys-Lys516-Leu586) (domain or fragment, human)
chain: B1 chain with D53T
modifications: Alexa Fluor 568 C5 maleimide on the N-terminal cysteine (the same paragraph also calls the peptides fluorescein-conjugated)
notes: cysteine cloned before Lys516, carries the fluorescent label; human ezrin C-ERMAD, Lys516-Leu586; also called fluorescently-labeled C-ERMAD; not shown: GST, N-terminal, cleaved
B3: Ezrin C-ERMAD (Cys-Lys516-Leu586), unlabeled (domain or fragment, human)
chain: B1 chain with D53T
notes: cysteine cloned before Lys516 for fluorescent labeling; human ezrin C-ERMAD, Lys516-Leu586; also called unlabeled C-ERMAD; not shown: GST, N-terminal, cleaved
B4: S100A4 (metastasin), wild type (natural protein)
chain: not shown
B5: S100P (natural protein, UniProt P25815 1-95, looked up)
chain: MTELETAMGMIIDVFSRYSGSEGSTQTLTKGELKVLMEKELPGFLQSGKDKDAVDKLLKDLDANGDAQVDFSEFIVFVAAITSACHKYFEKAGLK

Experiments:
Conditions in all cases: both partners purified
[1] = biological target: B4; assay: fluorescence polarisation; direct FP; 50 nM fluorescent tracer (Fl-C-ERMAD variants or Fl-NMIIA) titrated with S100 proteins or N-ERMAD; 20 mM HEPES pH 7.5, 150 mM NaCl, 0.1 mM TCEP, 1 mM CaCl2, 0.05% Tween-20; triplicates; quadratic binding equation
[2] = biological target: T1, Ezrin N-ERMAD (N-terminal ERM domain, FERM domain, Met1-Lys296) (human, UniProt P15311 1-296); assay: as above
[3] = biological target: B4; assay: fluorescence polarisation; competitive FP; 50 nM Fl-NMIIA complexed with 4 μM S100A4 dimer titrated with ezrin constructs; competition binding equation; triplicates
[4] = biological target: T1, Ezrin N-ERMAD (N-terminal ERM domain, …); assay: circular dichroism; far-UV CD difference spectra of complexes; 10 mM Tris pH 7.5, 150 mM NaCl, 0.1 mM TCEP, 1 mM CaCl2; 15 μM N-ERMAD + 50 μM S100A4 dimer, 25 μM F2 lobe + 25 μM S100A4 dimer, 25 μM C-ERMAD + 100 μM S100A4 dimer or 30 μM N-ERMAD; BeStSel deconvolution
[5] = biological target: T1, Ezrin N-ERMAD (N-terminal ERM domain, …); assay: fluorescence polarisation; competitive FP; 50 nM Fl-NMIIA complexed with 4 μM S100A4 dimer titrated with ezrin constructs; competition binding equation; triplicates
[6] = biological target: T2, Full-length human ezrin, phosphomimicking mutant T567D (human, UniProt P15311 1-586, Thr567Asp); assay: as above
[7] = biological target: T3, Ezrin F2 lobe of the N-ERMAD (Glu87-Glu199) (human, UniProt P15311 87-199); assay: as above
[8] = biological target: T4, Full-length human ezrin (human, UniProt P15311 1-586); assay: as above
[9] = biological target: T1, Ezrin N-ERMAD (N-terminal ERM domain, …); assay: other fluorescence titration; steady-state tryptophan fluorescence; 2 μM ezrin construct titrated with S100 protein; 20 mM HEPES pH 7.5, 150 mM NaCl, 0.5 mM TCEP, 1 mM CaCl2; 25°C; quadratic binding equation
[10] = biological target: T2, Full-length human ezrin, …; assay: as above
[11] = biological target: T3, Ezrin F2 lobe of the N-ERMAD …; assay: as above
[12] = biological target: T4, Full-length human ezrin; assay: as above
[13] = biological target: T1, Ezrin N-ERMAD (N-terminal ERM domain, …); assay: stopped-flow tryptophan fluorescence kinetics; 1 μM (post-mixing) N-ERMAD or F2 lobe mixed with S100A4 at different concentrations; 20 mM HEPES pH 7.5, 150 mM NaCl, 0.5 mM TCEP, 1 mM CaCl2; 25°C; Kd from amplitudes (quadratic), K1, k2, k-2 from hyperbola of kobs (induced fit)
[14] = biological target: T3, Ezrin F2 lobe of the N-ERMAD …; assay: as above
[15] = biological target: T3, Ezrin F2 lobe of the N-ERMAD …; assay: other fluorescence titration; steady-state tryptophan fluorescence; 2 μM ezrin construct titrated with S100 protein; 20 mM HEPES pH 7.5, 150 mM NaCl, 0.5 mM TCEP, 1 mM CaCl2; 25°C; quadratic binding equation; remark: listed apart in the source
[16] = biological target: T1, Ezrin N-ERMAD (N-terminal ERM domain, …); assay: as above; remark: listed apart in the source

Binder: B1
Kd [1]: 2.7 µM
binding result [2]: binds

Binder: B2
Kd [1]: 3.4 µM
Kd [2]: 0.0086 ± 0.0007 µM

Binder: B3
Kd [3]: 5.3 µM
binding result [4]: binds

Binder: B4
Kd [5]: 1.1 µM
Kd [6]: 72.2 µM
Kd [7]: 0.12 µM
Kd [8]: 92.1 µM
Kd [9]: 2.2 µM
Kd [10]: 158 µM
Kd [11]: < 0.1 µM
Kd [12]: 175 µM
Kd [13]: 3.9 µM
Kd [14]: 0.17 µM
stoichiometry N [15]: 1 S100A4 dimer per F2 lobe

Binder: B5
Kd [16]: 1.7 ± 0.3 µM
